Test results as given in patent US11732048B2, “Anti-axl antagonistic antibodies” (BERGEN TEKNOLOGIOVERFØRING AS, priority 2016, dated 2023).

Tests used:
[1] = target: T1, Axl receptor protein in MBA-MD-231 cells (Homo sapiens, UniProt P30530); experiment: Western blot of Axl receptor protein after antibody treatment; format: cell-based; details: 100 μg/mL, 20 hrs, versus irrelevant IgG or MAb #3
T1 construct: The expression of Axl receptor protein in MBA-MD-231 cells treated with different antibodies was examined by Western blot analysis; endogenous in cells; host or cells: MDA-MB-231 (printed 'MBA-MD-231') human breast carcinoma cells
Method: The expression of Axl receptor protein in MBA-MD-231 cells treated with different antibodies was examined by Western blot analysis. The cells were seeded in a 6-well plate at density of 5×10^5 cells per well and cultured overnight before treatment initiation. The cells were treated for 20 hrs in the presence of isotype control (mouse IgG2b), anti-Axl antibodies (10G5 and MAb #3) at concentrations of 100 μg/mL or multikinase inhibitor Foretinib (targets Met, Ron, Axl, Tie-2, and VEGFR2) at a concentration of 0.5 μM followed by harvesting by centrifugation at 1,200 rpm for 5 min and washing with sterile PBS. The cells were collected by centrifugation and resuspended in NP40-lysis buffer followed by 30 min incubation on ice. The cell lysates were cleared by centrifugation (12,000 rpm, 4° C., 5 min) and the protein concentrations were determined using BCA protein assay. The cell lysate samples comprising 35 μg of total protein were denatured in presence of the reducing agent (Life Technologies) and loaded into the wells of NuPAGE 10% Bis-Tris polyacrylamide (PAA) gel, 1.0 mm×12 well (Invitrogen). The electrophoresis was performed using Bis-Tris SDS running buffer under the recommended conditions (Life Technologies) and the proteins were transfer on PVDF membrane, as described for 2 gels in a manual for XCell II™ Blot Module (Invitrogen) using the transfer buffer with 20% methanol. […]

[2] = target: T2, mouse Axl (rmAxl-Fc chimera; Mm-Axl-Fc) (Mus musculus, UniProt Q00993); experiment: Biacore binding analysis on immobilised mouse Axl
T2 construct: The soluble recombinant antigens corresponding to human Axl (rhAxl-Fc chimera; R&D Systems, Cat. no; 154-AL), mouse Axl (rmAxl-Fc chimera; Fc; purchased R&D Systems 854-AX
T2 sequence (Q00993 19-445 limits assumed, change not shown): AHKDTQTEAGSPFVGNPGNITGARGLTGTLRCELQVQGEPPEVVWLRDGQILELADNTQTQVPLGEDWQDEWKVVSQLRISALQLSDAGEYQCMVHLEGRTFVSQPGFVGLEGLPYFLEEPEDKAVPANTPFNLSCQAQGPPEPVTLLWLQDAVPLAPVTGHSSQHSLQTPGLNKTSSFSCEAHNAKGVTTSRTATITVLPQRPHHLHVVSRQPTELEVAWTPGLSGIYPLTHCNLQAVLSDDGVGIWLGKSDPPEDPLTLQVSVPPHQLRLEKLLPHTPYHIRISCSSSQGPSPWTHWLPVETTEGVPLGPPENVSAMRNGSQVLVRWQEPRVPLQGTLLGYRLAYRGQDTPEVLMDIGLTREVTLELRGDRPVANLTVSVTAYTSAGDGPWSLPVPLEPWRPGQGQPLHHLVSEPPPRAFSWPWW
Method: The binding experiments were performed using Biacore 3000 instrument (GE Healthcare) at 25° C. The soluble recombinant antigens corresponding to human Axl (rhAxl-Fc chimera; R&D Systems, Cat. no. 154-AL), mouse Axl (rmAxl-Fc chimera; R&D Systems, R&D Systems; Cat. no. 854-AX) and human Tyro3 (rhTyro3/Dtk-Fc chimera; R&D Systems, Cat. no. 859-DK) were immobilized on the surface of CM5 sensor chip using amine coupling at the surface density of 1,308.0, 2,115.9 and 1,429.0 RU, respectively. The Biacore runs were performed in an automatic mode using Binding analysis wizard.
The sample containing MAb 10G5 or recombinant mouse (rm) Axl-ligand Gas6 (R&D Systems, Cat. no. 986-GS/CF) at concentration 10 μg/mL in HBS-EP buffer (GE Healthcare) was injected over the surfaces with immobilized antigens at flow rate of 30 μL/min for 3 min (association) followed by 5 min dissociation.
Sensor chip with immobilised Axl: Hs-Axl-Fc (638.2 RU), Mm-Axl-Fc (334.5 RU), Rhe-Axl-Fc (350.2 RU)
All tests were performed in parallel on Hs-Axl-Fc, Mm-Axl-Fc and Rhe-Axl-Fc surfaces.

Hu-Axl-Fc = target: T3, Hu-Axl-Fc (Homo sapiens, UniProt P30530); experiment: Biacore competition binding c10G5 versus YW327.6S2-var (Example 21); details: 666.7 nM each, first and second sample
T3 construct: Fc
Method: Injections: • Use Flow Cell(s): 2 with 1 as reference • Flow Rate: 30 (μL/min) • Number of Injections: 2 • First Sample: • Injection Time: 3 (min) • Wait After Injection: 2.5 (min) • Second Sample: • Injection Time: 3 (min) • Wait After Injection: 2.5 (min)
The competitive binding analysis was performed by injecting a first sample (MAbs c10G5 or YW327.6S2-var) at a concentration sufficient to reach plateau within 1-2 min followed by injection of MAb YW327.6S2-var as a second sample (FIG. 21A).
In a second part of the of experiment, the antibody YW327.6S2-var was injected as a first sample followed by injection of either antibody YW327.6S2-var or c10G5 as a second sample (FIG. 21B).

MDA-MB-231 cells = experiment: Three-dimensional (3D) organotypic tumour mass model; format: cell-based, human
Method: A highly aggressive triple-negative human breast cancer cell line MDA-MB-231 (ATCC® HTB-26™) was cultured according to recommended conditions in Dulbecco's Modified Eagle's Medium/Nutrient Mixture F-12 Ham medium supplemented with 10% foetal bovine serum (FBS), glutamine and penicillin and streptomycin. The cells were pre-treated in suspension for at least 1 hour at 37° C., to ensure proper binding of antibodies on the cell surface before they were placed in extracellular matrix. The cells cultures were observed every day and fresh treatments were done every other day. The antibodies were used at concentrations 50-100 μg/mL. Imaging of coverslip 3D assay (35 mm dish) was done on a NIKON light microscopy using both Phase contrast and Hoffman optics. Already at day 3, difference in growth of cells treated with MAb10G5 and cells treated with a control irrelevant IgG was observed.
MDA-MB-231 cells were grown on extracellular matrix and allowed to form the highly aggressive stellate shaped morphology. Stellate-shaped tumour masses were then treated with the control IgG and antibody 10G5, as described in EXAMPLE 7.

B1: murine 10G5: mouse monoclonal anti-human Axl antibody from hybridoma WR-10G5-E5; VH SEQ ID NO: 28, VL SEQ ID NO: 29 (antibody, listed as Mus musculus, V domains shown)
VH: QVQLQQSGAELVRPGASVKLSCKASGYSFTDFYINWVRQRPGQGLEWIARIFPGGDNTYYNEKFKGKATLTAEESSSTAYIQLSSLTSEDSAVYFCARRGLYYAMDYWGQGISVTVSS
VL: DVLMTQTPLSLPVSLGDQASISCRSSQSLVHSNGIPYLHWYLQKPGQSPKLLIYRVSNRFSGVPDRFSGSGSGTDFTLKISRVEAEDLGVYFCSQGTHVPPTFGGGTKLEIK
modifications: (1)..(118) Mus musculus 10G5 VH domain; (1)..(112) Mus musculus 10G5 VL domain
- Axl receptor protein level [1]: significant reduction in the amount of Axl receptor protein
- Binding to mouse Axl [2]: no significant binding
- Competition between 10G5 and YW327.6S2 for binding to Axl (Hu-Axl-Fc): does not compete
- Effect on established stellate-shaped 3D tumour masses (MDA-MB-231 cells; 9-days old organoid masses treated 72 hours, versus control IgG): caused degradation of stellate patterns
- Growth and tumour mass development in extracellular matrix (MDA-MB-231 cells; antibody 50-100 μg/mL, day 6, versus control IgG): significantly inhibited growth and tumour mass development
